Molecular target: human TrkA receptor expressed in transfected 3T3 fibroblast cells (human), P04629
Assay: cell-based or functional assay

Chain of human TrkA receptor expressed in transfected 3T3 fibroblast cells (human), P04629 (P04629 33-796): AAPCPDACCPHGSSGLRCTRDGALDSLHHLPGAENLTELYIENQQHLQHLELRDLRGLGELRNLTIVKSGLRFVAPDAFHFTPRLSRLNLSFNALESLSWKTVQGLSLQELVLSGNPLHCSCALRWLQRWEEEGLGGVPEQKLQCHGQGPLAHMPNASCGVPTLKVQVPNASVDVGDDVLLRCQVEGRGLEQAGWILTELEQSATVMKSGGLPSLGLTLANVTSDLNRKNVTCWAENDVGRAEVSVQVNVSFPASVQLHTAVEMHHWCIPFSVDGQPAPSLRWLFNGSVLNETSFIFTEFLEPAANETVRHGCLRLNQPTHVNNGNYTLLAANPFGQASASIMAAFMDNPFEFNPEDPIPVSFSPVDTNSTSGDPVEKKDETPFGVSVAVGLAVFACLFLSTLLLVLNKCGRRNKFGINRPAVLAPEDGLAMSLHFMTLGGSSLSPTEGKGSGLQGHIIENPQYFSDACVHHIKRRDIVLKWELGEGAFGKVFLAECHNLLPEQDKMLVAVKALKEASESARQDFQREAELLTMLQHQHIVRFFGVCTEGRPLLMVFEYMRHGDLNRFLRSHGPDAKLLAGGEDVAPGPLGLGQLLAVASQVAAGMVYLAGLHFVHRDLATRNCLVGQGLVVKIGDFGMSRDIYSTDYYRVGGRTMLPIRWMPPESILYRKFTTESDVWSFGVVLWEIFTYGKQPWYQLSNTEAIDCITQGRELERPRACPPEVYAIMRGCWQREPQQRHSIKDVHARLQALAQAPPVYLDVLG

Row | % Max Inhibition, pTrkA [%] | % Max stimulation, pTrkA [%] | EC50 (nM), pTrkA [nM] | IC50 (nM), pTrkA [nM] | pTrkA counts per second, 0.1 pM mAb, no NGF (counts per second) | pTrkA counts per second, 1 pM mAb, no NGF (counts per second) | pTrkA counts per second, 10 pM mAb, no NGF (counts per second) | pTrkA counts per second, 100 pM mAb, no NGF (counts per second) | pTrkA counts per second, 1 nM mAb, no NGF (counts per second) | pTrkA counts per second, 10 nM mAb, no NGF (counts per second) | pTrkA counts per second, 100 nM mAb, no NGF (counts per second) | pTrkA counts per second, 1 uM mAb, no NGF (counts per second) | pTrkA counts per second, NGF +0.1 pM mAb (counts per second) | pTrkA counts per second, NGF +1 pM mAb (counts per second) | pTrkA counts per second, NGF +10 pM mAb (counts per second) | pTrkA counts per second, NGF +100 pM mAb (counts per second) | pTrkA counts per second, NGF +1 nM mAb (counts per second) | pTrkA counts per second, NGF +10 nM mAb (counts per second) | pTrkA counts per second, NGF +100 nM mAb (counts per second) | pTrkA counts per second, NGF +1 uM mAb (counts per second) | Binder | other results
1 | 66 | 27 | 0.28 | 0.12 | 277000 | 398000 | 335000 | 486000 | 935000 | 1.16e+06 | 994000 | 1.02e+06 | 2.56e+06 | 2.79e+06 | 2.68e+06 | 2.01e+06 | 1.35e+06 | 1.2e+06 | 1.44e+06 | 971000 | mAb D (antibody, human IgG1, kappa) heavy: EVQLVESGGGLVKPGGSLRLSCAASGFTFSGVSINWVRQAPGKGLEWVSSETTSSGTIYYADSVKGRFTISRDNAKNSLYLQMNSLRAEDTAVYYCARSYYYGMDVWGQGTTVTVSSASTKGPSVFPLAPSSKSTSGGTAALGCLVKDYFPEPVTVSWNSGALTSGVHTFPAVLQSSGLYSLSSVVTVPSSSLGTQTYICNVNHKPSNTKVDKRVEPKSCDKTHTCPPCPAPEAEGAPSVFLFPPKPKDTLMISRTPEVTCVVVDVSHEDPEVKFNWYVDGVEVHNAKTKPREEQYNSTYRVVSVLTVLHQDWLNGKEYKCKVSNKALPSSIEKTISKAKGQPREPQVYTLPPSREEMTKNQVSLTCLVKGFYPSDIAVEWESNGQPENNYKTTPPVLDSDGSFFLYSKLTVDKSRWQQGNVFSCSVMHEALHNHYTQKSLSLSPGK light: DIVMTQTPLSSPVTLGQPASISCRSSQSLVHRAGNTYLSWLQQRPGQPPRLLIYKISNRFSGVPDRFSGSGAGTDFTLKISRVEAEDVGVYYCMQARQFPLTFGGGTKVEIKRTVAAPSVFIFPPSDEQLKSGTASVVCLLNNFYPREAKVQWKVDNALQSGNSQESVTEQDSKDSTYSLSSTLTLSKADYEKHKVYACEVTHQGLSSPVTKSFNRGEC | 
2 | 57 | 31 | 0.29 | 0.48 | 178000 | 181000 | 194000 | 264000 | 487000 | 600000 | 605000 | 483000 | 1.85e+06 | 2.19e+06 | 2.76e+06 | 2.78e+06 | 838000 | 800000 | 739000 | 630000 | mAb E (antibody, human IgG1, kappa) heavy: EVQLVESGGGLVKPGGSLRLSCAASGFTFSGVSINWVRQAPGKGLEWVSSETTSSGTIYYADSVKGRFTISRDNAKNSLYLQMNSLRAEDTAVYYCARSYYYGMDVWGQGTTVTVSSASTKGPSVFPLAPSSKSTSGGTAALGCLVKDYFPEPVTVSWNSGALTSGVHTFPAVLQSSGLYSLSSVVTVPSSSLGTQTYICNVNHKPSNTKVDKRVEPKSCDKTHTCPPCPAPEAEGAPSVFLFPPKPKDTLMISRTPEVTCVVVDVSHEDPEVKFNWYVDGVEVHNAKTKPREEQYNSTYRVVSVLTVLHQDWLNGKEYKCKVSNKALPSSIEKTISKAKGQPREPQVYTLPPSREEMTKNQVSLTCLVKGFYPSDIAVEWESNGQPENNYKTTPPVLDSDGSFFLYSKLTVDKSRWQQGNVFSCSVMHEALHNHYTQKSLSLSPGK light: DIVMTQTPLSSPVTLGQPASISCRSSQSLVHRQGNTYLSWLQQRPGQPPRLLIYKISNRFSGVPDRFSGSGAGTDFTLKISRVEAEDVGVYYCMQARQFPLTFGGGTKVEIKRTVAAPSVFIFPPSDEQLKSGTASVVCLLNNFYPREAKVQWKVDNALQSGNSQESVTEQDSKDSTYSLSSTLTLSKADYEKHKVYACEVTHQGLSSPVTKSFNRGEC | % Inh., Human pTrkA: 56%

From patent US20190263932A1
